# Source: patent US20180172683A1 (published 2018)
# Ends that are not written are not given here. Ser‑Gly linker = flexible serine-glycine linker, six amino acids long
# Tests used:
# [1] = biological target: T1, B-cell lymphoma extra-large protein (Bcl-xL), first 209 amino acids with N-terminal avitag (UniProt Q07817 1-209, biotin on the avitag (BirA biotin ligase); a non-biotinylated form was used as the excess competitor in solution in the off-rate assays); assay: radiolabeled peptide off-rate, reference D1
# T1 construct: range 1-209; Expressed in E. coli BL21(DE3); Used in solution (forward assays) or immobilized through biotin on streptavidin plates or beads (reverse assay, off-rate and HTSK experiments); not shown: His tag implied (pET24a NdeI/XhoI, Ni-NTA purification, anti-HIS probe)
# T1 sequence (Q07817 other isoform, or with tags, fused parts or gaps): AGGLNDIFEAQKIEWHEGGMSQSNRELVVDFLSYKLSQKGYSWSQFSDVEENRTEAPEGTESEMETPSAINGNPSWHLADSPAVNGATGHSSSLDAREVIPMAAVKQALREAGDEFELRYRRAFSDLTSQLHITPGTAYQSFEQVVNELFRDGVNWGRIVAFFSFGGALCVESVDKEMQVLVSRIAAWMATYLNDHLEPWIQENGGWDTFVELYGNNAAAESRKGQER
# [2] = biological target: T1, B-cell lymphoma extra-large protein …; assay: radiolabeled HA-tagged peptide off-rate from immobilized Bcl-xL
# Experimental: The radiolabeled peptides were allowed to bind to 30 pmol immobilized Bcl-xL for 1 hour in sample buffer (1×PBS, 1% (w/v) BSA, 0.1% (v/v) Tween 20, 10 μM biotin). The beads were magnetically separated, and washed 5× with sample buffer. The beads were resuspended in 1 mL of sample buffer containing 3 μM non-biotinylated Bcl-xL (˜100× molar excess relative to immobilized biotinylated Bcl-xL). At various time points, 100 μL of slurry was removed and the beads were magnetically separated and washed. The percent remaining at each time point was determined by dividing the counts per minute (cpm) on beads by total cpm (beads+washes). The peptide off-rate was determined by an exponential fit of the Percent counts on beads vs. Time (s).
# The peptide ligands were made using a C-terminal HA tag, and affinity purified.
binder,measurement,setting,value
"MIDTNVILNYKKAADHFSITM-{Ser‑Gly linker-HA tag} (also: 35S-labeled methionine, Frequency rank 79 in the doped selection pool; also called peptide D79; not shown: flexible serine-glycine linker, six amino acids long; HA tag) [D79, radiolabeled in vitro translated peptide with C-terminal serine-glycine linker and HA tag]",fold slower off-rate than D1,[1],> 3 fold
same,koff,[2],5.9e-07 s⁻¹
